From the supplement of paper PMC7877785
± gives the uncertainty stated by the source.

Test: self-splicing fitness, log relative to wild type (ln ratio); higher = more splicing; Tetrahymena group I intron in knt gene, E. coli kanamycin selection, DiMSum; sequences stand for … in CUCUCU…GGAGGGAAAAGUUAUCAGGCAUGCACCUGGUAGCUAGUCUUUAAACCAAUAGAUUGCAUCGGUUUAAAAGGCAAGACCGUCAAAUUGCGGGAAAGGGGUCAACAGCCGUUCAGUACCAAGUCUCAGGGGAAACUUUGAGAUGGCCUUGCAAAGGGUAUGGUAAUAAGCUGACGGACAUGGUCCUAACCACGCAGCCAAGUCCUAAGUCAACAGAUCUUCUGUUGAUAUGGAUGCAGUUCACAGACUAAAUGUCGGUCGGGGAAGAUGUAUUCUUCUCAUAAGAUAUAGUCGGACCUCUCCUUAAUGGGAGCUAGCGGAUGAAGUGAUGCAACACUGGAGCCGCUGGGAACUAAUUUGUAUGCGAAAGUAUAUUGAUUAGUUUUGGAGUACUCGUGGUCG
Method in brief: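 Colonies from six replicate transformations of E. coli BL21(DE3) were pooled and amplicon-sequenced on an Illumina HiSeq 2500. The library placed an intron with all eight P1ex-region nucleotides randomised inside the knt kanamycin-resistance gene on pET-22b(+), and cells grew overnight at 37°C or 30°C on LB agar with or without 25 μg/mL kanamycin (plus 100 μg/mL carbenicillin, 50 μM IPTG, 0.2% rhamnose). Fitness is the DiMSum error-weighted combination of wild-type-normalised replicate fold changes, kanamycin versus none.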

Sequence | self-splicing fitness (ln) (30 °C) | self-splicing fitness (ln) (37 °C)
GGAGAGCAAUAUUACGAUGA | -2.47 ± 0.49 | 
GGAGAGCAAUAUUACGCCAA | -2.04 ± 0.24 | 
GGAGAGCAAUAUUACGCCCU | -2.57 ± 0.42 | 
GGAGAGCAAUAUUACGGCCU | -2.34 ± 0.29 | -1.19 ± 0.43
GGAGAGCAAUAUUACGGCGU | -1.58 ± 0.2 | -1.17 ± 0.26
GGAGAGCAAUAUUACGGCUC | -1.76 ± 0.2 | -2.82 ± 0.34
GGAGAGCAAUAUUACGGGCC | -2.35 ± 0.33 | 
GGAGAGCAAUAUUACGGUAU |  | -2.2 ± 0.34
GGAGAGCAAUAUUACGGUUA | -3.19 ± 0.38 | 
GGAGAGCAAUAUUACGUAGA | -4.01 ± 0.2 | -2.05 ± 0.15
GGAGAGCAAUAUUACGUAUC | -2.61 ± 0.34 | -0.193 ± 0.23
GGAGAGCAAUAUUACGUAUU | -4.02 ± 0.31 | -1.22 ± 0.16
GGAGAGCAAUAUUACGUGUU | -4.51 ± 0.37 | -1.64 ± 0.31
GGAGAGCAAUAUUACGUUCA | -1.39 ± 0.17 | -0.277 ± 0.21
GGAGAGCAAUAUUACGUUGA |  | -1.97 ± 0.42
GGAUAGCAAUAUUACGACGU | -0.152 ± 0.28 | -0.257 ± 0.24
GGAUAGCAAUAUUACGAGAU | -3.46 ± 0.32 | 0.361 ± 0.15
GGAUAGCAAUAUUACGAGUC | -2.17 ± 0.26 | -1.06 ± 0.22
GGAUAGCAAUAUUACGAUGU | -0.882 ± 0.084 | -0.0369 ± 0.11
GGAUAGCAAUAUUACGCAUC |  | -1.63 ± 0.38
GGAUAGCAAUAUUACGCAUU | -3.51 ± 0.32 | -1.65 ± 0.22
GGAUAGCAAUAUUACGCGGU | -2.47 ± 0.33 | -2.6 ± 0.38
GGAUAGCAAUAUUACGCUUA | -1.88 ± 0.18 | -0.532 ± 0.15
GGAUAGCAAUAUUACGGACG | -0.899 ± 0.13 | -0.693 ± 0.17
GGAUAGCAAUAUUACGGAGG | -3.06 ± 0.2 | -2.77 ± 0.3

Sequence | self-splicing fitness (ln) (30 °C) | self-splicing fitness (ln) (37 °C)
GGAUAGCAAUAUUACGGGCC | -2.56 ± 0.35 | -1.65 ± 0.23
GGAUAGCAAUAUUACGGGUG | -2.79 ± 0.33 | -0.239 ± 0.17
GGAUAGCAAUAUUACGGUUG | -3.53 ± 0.26 | -0.953 ± 0.18
GGAUAGCAAUAUUACGUCAG | -2.87 ± 0.12 | -2.12 ± 0.23
GGAUAGCAAUAUUACGUCGG | -2.62 ± 0.23 | -1.86 ± 0.27
GGAUAGCAAUAUUACGUCUU | -0.966 ± 0.096 | 0.126 ± 0.11
GGAUAGCAAUAUUACGUUCG | -1.55 ± 0.12 | -1.64 ± 0.14
GGCAAGCAAUAUUACGAACU | -1.18 ± 0.16 | 0.413 ± 0.14
GGCAAGCAAUAUUACGACGA | -1.37 ± 0.099 | -0.167 ± 0.11
GGCAAGCAAUAUUACGAUAU | -1.29 ± 0.073 | -0.406 ± 0.096
GGCAAGCAAUAUUACGAUUG | -3.03 ± 0.19 | -1.64 ± 0.16
GGCAAGCAAUAUUACGCCAU | -2.4 ± 0.39 | -1.39 ± 0.29
GGCAAGCAAUAUUACGCCCU | -2.53 ± 0.26 | -0.495 ± 0.19
GGCAAGCAAUAUUACGGCCU | -2.74 ± 0.18 | 0.111 ± 0.23
GGCAAGCAAUAUUACGGGCU | -2.53 ± 0.2 | -2.48 ± 0.2
GGCAAGCAAUAUUACGGGGC | -2.62 ± 0.42 | -1.5 ± 0.32
GGCAAGCAAUAUUACGGUUA | -0.0834 ± 0.075 | 0.577 ± 0.074
GGCAAGCAAUAUUACGUAUU | -0.415 ± 0.06 | -0.183 ± 0.074
GGCAAGCAAUAUUACGUCAG | -4.5 ± 0.34 | -2.4 ± 0.26
GGCAAGCAAUAUUACGUCCA | -1.83 ± 0.22 | -0.175 ± 0.18
GGCAAGCAAUAUUACGUCUU | -0.676 ± 0.066 | -0.385 ± 0.071
GGCCAGCAAUAUUACGACUA | -0.921 ± 0.1 | -0.322 ± 0.1
GGCCAGCAAUAUUACGAGAG | -3.27 ± 0.24 | -2.52 ± 0.25
GGCCAGCAAUAUUACGCCGG | -3.21 ± 0.17 | -1.99 ± 0.23
GGCCAGCAAUAUUACGCGAG |  | -2.98 ± 0.35

Sequence | self-splicing fitness (ln) (30 °C) | self-splicing fitness (ln) (37 °C)
GGCCAGCAAUAUUACGCUCU | -0.639 ± 0.12 | -0.0247 ± 0.17
GGCCAGCAAUAUUACGCUUG | -4.13 ± 0.26 | -2.58 ± 0.2
GGCCAGCAAUAUUACGGAAU | -0.615 ± 0.057 | -0.0748 ± 0.068
GGCCAGCAAUAUUACGGGCA | -1.06 ± 0.07 | -0.314 ± 0.079
GGCCAGCAAUAUUACGGGUA | -0.772 ± 0.064 | -0.783 ± 0.071
GGCCAGCAAUAUUACGGUAG | -0.883 ± 0.063 | 0.303 ± 0.083
GGCCAGCAAUAUUACGGUCG | -1.2 ± 0.14 | 0.113 ± 0.14
GGCCAGCAAUAUUACGUAGU | -2.25 ± 0.12 | -2.13 ± 0.12
GGCCAGCAAUAUUACGUCCA | -1.61 ± 0.17 | -0.128 ± 0.15
GGCCAGCAAUAUUACGUCGG | -3.69 ± 0.26 | -1.9 ± 0.24
GGCCAGCAAUAUUACGUGAA | -1.67 ± 0.066 | -0.271 ± 0.077
GGCCAGCAAUAUUACGUGUG | -1.15 ± 0.051 | -0.323 ± 0.066
GGCCAGCAAUAUUACGUUCC | -1.28 ± 0.14 | 0.125 ± 0.18
GGCGAGCAAUAUUACGAACU | -1.3 ± 0.16 | 0.292 ± 0.18
GGCGAGCAAUAUUACGAAGG | -3.8 ± 0.27 | -2.88 ± 0.4
GGCGAGCAAUAUUACGAGGC | -3.5 ± 0.23 | -3.02 ± 0.27
GGCGAGCAAUAUUACGAUUC | -0.495 ± 0.1 | 0.463 ± 0.14
GGCGAGCAAUAUUACGCAAG | -2.96 ± 0.34 | -2.3 ± 0.24
GGCGAGCAAUAUUACGCCAA |  | -2.45 ± 0.49
GGCGAGCAAUAUUACGCCGU | -3.44 ± 0.47 | -1.28 ± 0.45
GGCGAGCAAUAUUACGCCUA |  | -1.76 ± 0.23
GGCGAGCAAUAUUACGCUGG | -1.39 ± 0.36 | 
GGCGAGCAAUAUUACGCUGU | -2.63 ± 0.22 | -2.66 ± 0.27
GGCGAGCAAUAUUACGGAUU | -1.21 ± 0.17 | -1.06 ± 0.24
GGCGAGCAAUAUUACGGCAA | -0.896 ± 0.19 | -0.442 ± 0.2

Sequence | self-splicing fitness (ln) (30 °C) | self-splicing fitness (ln) (37 °C)
GGCGAGCAAUAUUACGGGGA | -2.39 ± 0.2 | -2.29 ± 0.29
GGCGAGCAAUAUUACGGGGC | -3.65 ± 0.29 | -2.96 ± 0.34
GGCGAGCAAUAUUACGGUAA | -2.66 ± 0.16 | -1.77 ± 0.2
GGCGAGCAAUAUUACGGUAC | -2.08 ± 0.17 | -1.98 ± 0.19
GGCGAGCAAUAUUACGUAGA | -2.07 ± 0.093 | -1.27 ± 0.12
GGCGAGCAAUAUUACGUCAA | -3.73 ± 0.34 | -1.71 ± 0.15
GGCGAGCAAUAUUACGUCUU | -0.851 ± 0.047 | -0.197 ± 0.06
GGCGAGCAAUAUUACGUGUA | -2.41 ± 0.15 | -1.16 ± 0.14
GGCUAGCAAUAUUACGAAGA | -2.05 ± 0.43 | -0.778 ± 0.36
GGCUAGCAAUAUUACGACAG | -2.88 ± 0.35 | -1.85 ± 0.34
GGCUAGCAAUAUUACGACAU | -0.413 ± 0.013 | 0.0789 ± 0.033
GGCUAGCAAUAUUACGAUAU | -1.79 ± 0.17 | -1.84 ± 0.16
GGCUAGCAAUAUUACGAUCC | 0.227 ± 0.47 | 
GGCUAGCAAUAUUACGAUGG |  | -2.46 ± 0.23
GGCUAGCAAUAUUACGCACG | -0.276 ± 0.093 | -0.119 ± 0.1
GGCUAGCAAUAUUACGCCCU |  | 0.0828 ± 0.36
GGCUAGCAAUAUUACGCCUA | -0.205 ± 0.23 | -1.69 ± 0.3
GGCUAGCAAUAUUACGCCUU |  | -0.73 ± 0.19
GGCUAGCAAUAUUACGCGGA | -0.936 ± 0.22 | -0.393 ± 0.22
GGCUAGCAAUAUUACGCGUG | -0.672 ± 0.071 | -1.13 ± 0.083
GGCUAGCAAUAUUACGCUUC | -2.51 ± 0.21 | -1.61 ± 0.26
GGCUAGCAAUAUUACGCUUG | -3.03 ± 0.19 | -2.19 ± 0.19
GGCUAGCAAUAUUACGGACA | -0.485 ± 0.091 | -0.398 ± 0.098
GGCUAGCAAUAUUACGGCUG | 0.0242 ± 0.097 | -0.992 ± 0.12
GGCUAGCAAUAUUACGUACU | -0.354 ± 0.077 | 0.312 ± 0.11
